Assays:
[1] = molecular target: 6xHis-tagged RcsF (E. coli) (UniProt P69411); assay: BLI
[2] = molecular target: Untagged BamA (biolayer interferometry) (E. coli), P0A940; assay: BLI; details: remark: other sources report otherwise
[3] = molecular target: BamABCDE holocomplex (BAM) (E. coli, UniProt P0A940;P77774;P0A903;P0AC02;P0A937); assay: native gel or EMSA
BamABDE complex = BamABDE complex (E. coli, UniProt P0A940;P77774;P0AC02;P0A937); assay: native gel or EMSA
BamACDE complex = BamACDE complex (E. coli, UniProt P0A940;P0A903;P0AC02;P0A937); assay: native gel or EMSA
Chain of BamACDE complex (P0A903 25-344, chain 2 of 3): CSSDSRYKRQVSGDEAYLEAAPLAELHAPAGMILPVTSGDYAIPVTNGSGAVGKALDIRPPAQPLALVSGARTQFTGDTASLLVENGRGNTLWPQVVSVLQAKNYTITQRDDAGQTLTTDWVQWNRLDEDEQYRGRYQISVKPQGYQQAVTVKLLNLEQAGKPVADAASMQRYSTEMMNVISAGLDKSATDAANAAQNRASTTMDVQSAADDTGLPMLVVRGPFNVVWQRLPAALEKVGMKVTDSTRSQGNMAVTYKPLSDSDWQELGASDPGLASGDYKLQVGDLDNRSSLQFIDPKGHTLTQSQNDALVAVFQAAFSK
Chain of BamACDE complex (P0AC02 20-245, chain 3 of 3): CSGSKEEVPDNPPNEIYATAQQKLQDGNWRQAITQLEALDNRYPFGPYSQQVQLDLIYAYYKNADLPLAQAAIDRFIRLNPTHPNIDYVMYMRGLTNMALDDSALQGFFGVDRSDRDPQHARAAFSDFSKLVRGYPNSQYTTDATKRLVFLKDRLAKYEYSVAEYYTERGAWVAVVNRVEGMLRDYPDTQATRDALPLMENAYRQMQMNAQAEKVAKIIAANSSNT
Chain of BamACDE complex (P0A937 20-113, chain 4 of 3): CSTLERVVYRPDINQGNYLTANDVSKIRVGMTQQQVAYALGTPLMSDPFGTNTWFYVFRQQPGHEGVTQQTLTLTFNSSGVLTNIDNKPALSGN

Chain of BamABDE complex (P77774 20-392, chain 2 of 3): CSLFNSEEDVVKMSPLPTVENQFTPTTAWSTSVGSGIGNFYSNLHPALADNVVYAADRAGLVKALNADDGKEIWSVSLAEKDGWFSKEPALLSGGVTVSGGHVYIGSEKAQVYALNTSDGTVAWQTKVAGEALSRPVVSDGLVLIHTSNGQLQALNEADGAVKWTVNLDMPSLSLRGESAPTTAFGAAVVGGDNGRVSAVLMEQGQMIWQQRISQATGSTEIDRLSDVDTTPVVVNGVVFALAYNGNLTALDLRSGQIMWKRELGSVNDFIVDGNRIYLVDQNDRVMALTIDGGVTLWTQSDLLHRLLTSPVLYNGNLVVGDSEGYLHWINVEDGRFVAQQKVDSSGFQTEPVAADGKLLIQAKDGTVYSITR
Chain of BamABDE complex (P0AC02 20-245, chain 3 of 3): as the sequence (P0AC02 20-245, chain 3 of 3) above
Chain of BamABDE complex (P0A937 20-113, chain 4 of 3): as the sequence (P0A937 20-113, chain 4 of 3) above
Chain of BamABCDE holocomplex (BAM) (P77774 20-392, chain 2 of 4): as the sequence (P77774 20-392, chain 2 of 3) above
Chain of BamABCDE holocomplex (BAM) (P0A903 25-344, chain 3 of 4): as the sequence (P0A903 25-344, chain 2 of 3) above
Chain of BamABCDE holocomplex (BAM) (P0AC02 20-245, chain 4 of 4): as the sequence (P0AC02 20-245, chain 3 of 3) above
Chain of BamABCDE holocomplex (BAM) (P0A937 20-113, chain 5 of 4): as the sequence (P0A937 20-113, chain 4 of 3) above

With “Untagged BamA (biolayer interferometry) (from UniProt P0A940 21-810) (natural protein; other documents disagree on this pair)” the Kd [1] was 420 nM.

B1: 6xHis-tagged RcsF, P69411 16-134 (natural protein)
chain: CSMLSRSPVEPVQSTAPQPKAEPAKPKAPRATPVRIYTNAEELVGKPFRDLGEVSGDSCQASNQDSPPSIPTARKRMQINASKMKANAVLLHSCEVTSGTPGCYRQAVCIGSALNITAK
modifications: here or on the partner: biotin (EZ-Link NHS-PEG4-biotin) where BamA was immobilised on streptavidin tips
Molecule B1 has a Kd [2] of 350 nM.

B2: RcsF (overexpressed from pSC216) (natural protein)
chain: B1 chain
modifications: lipid anchor (outer membrane lipoprotein)
B2: binds [3]; binds (BamABDE complex); binds (BamACDE complex).

Reference: paper doi:10.1101/823146 (bioRxiv, 2019)
